Experimental data as given in the supplement of paper PMC7877785.
± gives the uncertainty stated by the source.

Experiment: self-splicing fitness, log relative to wild type (ln ratio); higher = more splicing; Tetrahymena group I intron in knt gene, E. coli kanamycin selection, DiMSum; sequences stand for … in CUCUCU…GGAGGGAAAAGUUAUCAGGCAUGCACCUGGUAGCUAGUCUUUAAACCAAUAGAUUGCAUCGGUUUAAAAGGCAAGACCGUCAAAUUGCGGGAAAGGGGUCAACAGCCGUUCAGUACCAAGUCUCAGGGGAAACUUUGAGAUGGCCUUGCAAAGGGUAUGGUAAUAAGCUGACGGACAUGGUCCUAACCACGCAGCCAAGUCCUAAGUCAACAGAUCUUCUGUUGAUAUGGAUGCAGUUCACAGACUAAAUGUCGGUCGGGGAAGAUGUAUUCUUCUCAUAAGAUAUAGUCGGACCUCUCCUUAAUGGGAGCUAGCGGAUGAAGUGAUGCAACACUGGAGCCGCUGGGAACUAAUUUGUAUGCGAAAGUAUAUUGAUUAGUUUUGGAGUACUCGUGGUCG
In short: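 The eight P1ex-region nucleotides of an intron in the knt kanamycin-resistance gene on pET-22b(+) were all randomised and the library put into E. coli BL21(DE3). Six replicate transformations were grown overnight at 37°C or 30°C on LB agar with or without 25 μg/mL kanamycin, together with 100 μg/mL carbenicillin, 50 μM IPTG and 0.2% rhamnose. Colonies were pooled and amplicon-sequenced on an Illumina HiSeq 2500. Fitness from DiMSum is the error-weighted combination of wild-type-normalised replicate fold changes, kanamycin over none.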

| Sequence | self-splicing fitness (ln) (30 °C) | self-splicing fitness (ln) (37 °C) |
| --- | --- | --- |
| GCGUAGCAAUAUUACGUGAC | -2.29 ± 0.29 | -1.15 ± 0.28 |
| ACACAGCAAUAUUACGGUAG | -4 ± 0.17 | -3.1 ± 0.15 |
| AACUAGCAAUAUUACGUAGU | -2.24 ± 0.084 | -1.39 ± 0.12 |
| GCGAAGCAAUAUUACGGCCA | -0.992 ± 0.092 | -0.821 ± 0.1 |
| GAGUAGCAAUAUUACGUCAU | -2.58 ± 0.13 | -1.47 ± 0.13 |
| CCGGAGCAAUAUUACGUGCG | -1.42 ± 0.077 | -0.676 ± 0.091 |
| GGGAAGCAAUAUUACGAUUU | -0.13 ± 0.1 | -0.16 ± 0.12 |
| AAAUAGCAAUAUUACGACGC | -0.825 ± 0.062 | 0.13 ± 0.085 |
| UCUCAGCAAUAUUACGGAGU | -2.81 ± 0.22 | -2.49 ± 0.19 |
| UGUGAGCAAUAUUACGACUG | -1.04 ± 0.18 | -0.343 ± 0.29 |
| UUCGAGCAAUAUUACGCCAC |  | -1.4 ± 0.46 |
| UAAUAGCAAUAUUACGUGGG | -2.91 ± 0.3 | -3.08 ± 0.27 |
| CAAAAGCAAUAUUACGGCGU | -1.23 ± 0.069 | -0.3 ± 0.086 |
| AACCAGCAAUAUUACGCCAA | -2.55 ± 0.14 | -1.67 ± 0.16 |
| UCCCAGCAAUAUUACGAGGG | -3.14 ± 0.17 | -3.02 ± 0.21 |
| ACACAGCAAUAUUACGAGUA | -2.69 ± 0.12 | -0.889 ± 0.081 |
| AUUCAGCAAUAUUACGGGCU | -2.2 ± 0.12 | -1.38 ± 0.12 |
| GUCCAGCAAUAUUACGACAU | -0.524 ± 0.012 | 0.0313 ± 0.032 |
| CCAUAGCAAUAUUACGCUGG | -3.54 ± 0.19 | -2.58 ± 0.2 |
| UGUGAGCAAUAUUACGCCGG | -3.85 ± 0.25 | -1.98 ± 0.33 |
| UCCAAGCAAUAUUACGCGAC | -2.44 ± 0.23 |  |
| ACCCAGCAAUAUUACGGCCU | -0.518 ± 0.052 | 0.0547 ± 0.067 |
| AAUAAGCAAUAUUACGAGGG | -3.7 ± 0.37 | -2.9 ± 0.34 |
| CAACAGCAAUAUUACGACCG | 0.0339 ± 0.079 | -0.239 ± 0.081 |
| GAAUAGCAAUAUUACGCGUG | -1.01 ± 0.075 | -0.747 ± 0.094 |
| AGACAGCAAUAUUACGACUC | -2.28 ± 0.18 | -0.623 ± 0.2 |

| Sequence | self-splicing fitness (ln) (30 °C) | self-splicing fitness (ln) (37 °C) |
| --- | --- | --- |
| UCCAAGCAAUAUUACGCCGA | -0.365 ± 0.14 | 0.242 ± 0.13 |
| ACGCAGCAAUAUUACGCUCU | -0.517 ± 0.067 | 0.303 ± 0.076 |
| GAUCAGCAAUAUUACGGACU | -0.52 ± 0.12 | -0.894 ± 0.13 |
| AGAAAGCAAUAUUACGUGGU | -4.26 ± 0.29 | -2.41 ± 0.16 |
| AACCAGCAAUAUUACGGCGC | -0.046 ± 0.068 | -0.103 ± 0.086 |
| AUGUAGCAAUAUUACGAUGU | -0.753 ± 0.064 | -0.0629 ± 0.087 |
| AUAGAGCAAUAUUACGGGCU | -4.11 ± 0.27 | -2.51 ± 0.29 |
| ACCGAGCAAUAUUACGCAGU | -3.67 ± 0.16 | -2.48 ± 0.16 |
| UGGUAGCAAUAUUACGCGGG | -2.93 ± 0.2 | -2.47 ± 0.2 |
| GCCGAGCAAUAUUACGCUGG |  | -2.07 ± 0.33 |
| UUCCAGCAAUAUUACGCAAC | -3.02 ± 0.44 |  |
| CCCUAGCAAUAUUACGCUCC |  | -2.13 ± 0.4 |
| CACGAGCAAUAUUACGUUUA | -2.88 ± 0.18 | -2.52 ± 0.19 |
| UCGUAGCAAUAUUACGUAAG | -2.62 ± 0.23 | -2.58 ± 0.32 |
| GAAAAGCAAUAUUACGUAAG | -2.23 ± 0.11 | -0.733 ± 0.12 |
| CCCCAGCAAUAUUACGCAAG | -3.05 ± 0.14 | -2.28 ± 0.19 |
| GGUCAGCAAUAUUACGGUGC | -0.28 ± 0.075 | 0.535 ± 0.11 |
| AGGCAGCAAUAUUACGGCGA | -0.378 ± 0.075 | -0.154 ± 0.091 |
| CAGGAGCAAUAUUACGUUUA | -3.29 ± 0.15 | -2.44 ± 0.15 |
| UAGGAGCAAUAUUACGGCUU | -4.37 ± 0.28 | -3.13 ± 0.4 |
| UUAUAGCAAUAUUACGGACG | -1.25 ± 0.38 | -0.128 ± 0.34 |
| AGUUAGCAAUAUUACGGCGU | -0.00974 ± 0.12 | 0.274 ± 0.12 |
| CGAAAGCAAUAUUACGUCAA | -3.45 ± 0.34 | -2.11 ± 0.25 |
| CUAUAGCAAUAUUACGCUUA | -2.47 ± 0.24 | -2.34 ± 0.3 |
| CAUGAGCAAUAUUACGUGGC | -3.55 ± 0.25 | -2.46 ± 0.24 |
| AGAGAGCAAUAUUACGGGUG | -3.31 ± 0.32 |  |

| Sequence | self-splicing fitness (ln) (30 °C) | self-splicing fitness (ln) (37 °C) |
| --- | --- | --- |
| GUCCAGCAAUAUUACGGGUG | -0.386 ± 0.052 | 0.0761 ± 0.067 |
| UGAAAGCAAUAUUACGAGGA | -3.43 ± 0.24 | -1.81 ± 0.15 |
| CUAAAGCAAUAUUACGGAUG | -0.152 ± 0.049 | -0.202 ± 0.069 |
| CUCUAGCAAUAUUACGCCAG | -2.53 ± 0.32 |  |
| UGAUAGCAAUAUUACGAGGA | -3.09 ± 0.3 | -2.82 ± 0.48 |
| UUUAAGCAAUAUUACGAACA | -0.6 ± 0.17 | -0.353 ± 0.19 |
| CAAUAGCAAUAUUACGUAGA | -3.48 ± 0.16 | -2.37 ± 0.17 |
| ACGCAGCAAUAUUACGCCCU | -0.193 ± 0.12 | 0.187 ± 0.12 |
| CCGGAGCAAUAUUACGCCUC |  | -2.47 ± 0.41 |
| CAUCAGCAAUAUUACGCCGA | -2.57 ± 0.32 | -1.79 ± 0.31 |
| AACGAGCAAUAUUACGUUUG | -3.6 ± 0.2 | -2.45 ± 0.28 |
| CCUUAGCAAUAUUACGAUCG | -0.392 ± 0.07 | -0.134 ± 0.1 |
| GUCGAGCAAUAUUACGUCAA | -2.62 ± 0.29 | -2.32 ± 0.22 |
| CCCGAGCAAUAUUACGGAAC | -2.51 ± 0.31 | -2.57 ± 0.34 |
| CAAGAGCAAUAUUACGAAAA |  | -2.78 ± 0.38 |
| CUGAAGCAAUAUUACGGAGG | -3.67 ± 0.21 | -1.81 ± 0.24 |
| ACAUAGCAAUAUUACGUUGG | -3.23 ± 0.2 | -2.29 ± 0.14 |
| UGACAGCAAUAUUACGAUUC | -3.35 ± 0.17 | -2.09 ± 0.14 |
| CUGAAGCAAUAUUACGUAUC | -3.82 ± 0.23 | -1.78 ± 0.23 |
| AGGCAGCAAUAUUACGCUGU | -3.99 ± 0.16 | -3.28 ± 0.2 |
| AUGCAGCAAUAUUACGGGCC | -1.43 ± 0.1 | -1.02 ± 0.11 |
| CCAUAGCAAUAUUACGCAGA | -2.96 ± 0.21 | -2.16 ± 0.24 |
| AAGAAGCAAUAUUACGAGAU | -3.43 ± 0.18 | -1.56 ± 0.14 |
| GAUAAGCAAUAUUACGAUGU | -0.525 ± 0.082 | -0.545 ± 0.1 |
| ACGAAGCAAUAUUACGAUUA | -1.36 ± 0.077 | -0.917 ± 0.072 |
| CUAAAGCAAUAUUACGACUU | -3.45 ± 0.2 | -3.47 ± 0.39 |
